Reference: PMC10175771

Biological target: P. falciparum cytochrome c-2 (PF3D7_1311700), recombinant, hemylated, N-terminal His6 tag (P. falciparum) (UniProt Q8I6T6)
Assay: crystal structure

## P. falciparum cytochrome c-2 (PF3D7_1311700), recombinant, hemylated, N-terminal His6 tag (from UniProt Q8I6T6 1-159) (natural protein)
  stoichiometry N: 2
